Measured values from paper PMC5148612.

B1: Atg12~Atg5-Atg16-mCherry complex [modified: conjugated to Atg5 (Atg12~Atg5 protein conjugate) | conjugated to Atg12; conjugated to Atg5 (Atg12~Atg5 protein conjugate); conjugated to Atg12] [S. cerevisiae] / GST-prApe1(1–45) + … (parent)
chain 1: MSRILESENETESDESSIISTNNGTAMERSRNNQELRSSPHTVQNRLELFSRRLSQLGLASDISVDQQVEDSSSGTYEQEETIKTNAQTSKQKSHKDEKNIQKIQIKFQPIGSIGQLKPSVCKISMSQSFAMVILFLKRRLKMDHVYCYINNSFAPSPQQNIGELWMQFKTNDELIVSYCASVAFG
chain 2: MNDIKQLLWNGELNVLVSIDPSFLMKGSPREIAVLRIRVPRETYLVNYMPLIWNKIKSFLSFDPLTDSEKYFWFEHNKTPIPWNYPVGVLFDCLAGKSATFTTSFENQVKDVLTFLRIHLVMGDSLPPTIIPIASSKTQAEKFWFHQWKQVCFILNGSSKAIMSLSVNEARKFWGSVITRNFQDFIEISNKISSSRPRHIPLIIQTSRTSGTFRISQPTISMTGVNPTLKDIEGDILDVKEGINGNDVMVICQGIEIPWHMLLYDLYSKLRSFDGFLYITLVPIKGGDKASSEL
chain 3: MGNFIITERKKAKEERSNPQTDSMDDLLIRRLTDRNDKEAHLNELFQDNSGAIGGNIVSHDDALLNTLAILQKELKSKEQEIRRLKEVIALKNKNTERLNDELISGTIENNVLQQKLSDLKKEHSQLVARWLKKTEKETEAMNSEIDGTK
chain 4: MEEQREILEQLKKTLQMLTVEPSKNNQIANEEKEKKENENSWCIL
chain 5: MNNSKTNQQMNTSMGYPLTVYDECNKFQLIVPTLDANIMLWCIGQLSLLNDSNGCKHLFWQPNDKSNVRILLNNYDYGHLFKYLQCQRKCSVYIGEGTLKKYNLTISTSFDNFLDLTPSEEKESLCREDAHEDPVSPKAGSEEEISPNSTSNVVVSRECLDNFMKQLLKLEESLNKLELEQKVTNKEPNHRISGTIDIPEDRSELVNFFTELKTVKQLEDVFQRYHDYERLSQECDSKTEIASDHSKKETKIEVEPPNERSLQITMNQRDNSLYFQLFNNTNSVLAGNCKLKFTDAGDKPTTQIIDMGPHEIGIKEYKEYRYFPYALDLEAGSTIEIENQYGEVIFLGKYGSSPMINLRPPSRLSAESLQASQEPFYSFQIDTLPELDDSSIISTSISLSYDGDDNEKALTWEEL

Variants of: B1
Experiment: microscopy-based bead recruitment assay (mCherry signal at cargo mimetic beads)
Settings: with GST-prApe1(1–45) + Atg19 [S. cerevisiae]; 25 mM HEPES pH 7.5, 150 NaCl and 1 mM DTT; parent: 100; read off a plot

Compared with chain 2 MNDIKQLLWNGELNVLVSIDPSFLMKGSPREIAVLRIRVPRETYLVNYMPLIWNKIESFLSFDPLTDSEKYFWFEHNKTPIPWNYPVGVLFDCLAGKSATFTTSFENQVKDVLTFLRIHLVMGDSLPPTIIPIASSKTQAEKFWFHQWKQVCFILNGSSKAIMSLSVNEARKFWGSVITRNFQDFIEISNKISSSRPRHIPLIIQTSRTSGTFRISQPTISMTGVNPTLKDIEGDILDVKEGINGNDVMVICQGIEIPWHMLLYDLYSKLRSFDGFLYITLVPIKGGDKASSEL [chain 2 K57E], chain 2 MNDIKQLLWNGELNVLVSIDPSFLMKGSPREIAVLRIRVPRETYLVNYMPLIWNKIKSFLSFDPLTDSEKYFWFEHNKTPIPWEYPVGVLFDCLAGKSATFTTSFENQVKDVLTFLRIHLVMGDSLPPTIIPIASSKTQAEKFWFHQWKQVCFILNGSSKAIMSLSVNEARKFWGSVITRNFQDFIEISNKISSSRPRHIPLIIQTSRTSGTFRISQPTISMTGVNPTLKDIEGDILDVKEGINGNDVMVICQGIEIPWHMLLYDLYSKLRSFDGFLYITLVPIKGGDKASSEL [chain 2 N84E] is higher in percent of parent: 68% for the first, 70% for the second.

chain 2 MNDIKQLLWNGELNVLVSIDPSFLMKGSPREIAVLRIRVPRETYLVNYMPLIWNKIESFLSFDPLTDSEKYFWFEHNKTPIPWEYPVGVLFDCLAGKSATFTTSFENQVKDVLTFLRIHLVMGDSLPPTIIPIASSKTQAEKFWFHQWKQVCFILNGSSKAIMSLSVNEARKFWGSVITRNFQDFIEISNKISSSRPRHIPLIIQTSRTSGTFRISQPTISMTGVNPTLKDIEGDILDVKEGINGNDVMVICQGIEIPWHMLLYDLYSKLRSFDGFLYITLVPIKGGDKASSEL [chain 2 K57E N84E] showed a percent of parent of 55%.
